Laboratory results: paper PMC3516615 (Structure (London, England : 1993), 2012)
Like-named read-outs stand apart in the source and are kept apart here. Values belong to the binder of their own block, whether it stands above or below them.

What was measured:
[1] = target: T1, EphA2 SAM domain (wild type) (human, UniProt P29317 897-976); assay: NMR titration
T1 sequence (looked up): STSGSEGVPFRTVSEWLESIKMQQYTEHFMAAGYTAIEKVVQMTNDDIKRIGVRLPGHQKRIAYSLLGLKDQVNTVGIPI

[2] = target: T2, EphA2 SAM domain R950T (human, UniProt P29317 897-976, R950T); assay: ITC
T2 sequence (looked up): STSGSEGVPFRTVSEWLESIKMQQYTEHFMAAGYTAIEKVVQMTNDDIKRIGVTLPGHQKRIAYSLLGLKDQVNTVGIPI

[3] = target: T3, EphA1 SAM domain (human, UniProt P21709 906-976); assay: ITC
T3 sequence (looked up): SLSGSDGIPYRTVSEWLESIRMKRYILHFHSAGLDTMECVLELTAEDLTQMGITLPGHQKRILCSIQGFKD

[4] = target: T4, EphA2 SAM domain R950E (human, UniProt P29317 897-976, R950E); assay: ITC
T4 sequence (looked up): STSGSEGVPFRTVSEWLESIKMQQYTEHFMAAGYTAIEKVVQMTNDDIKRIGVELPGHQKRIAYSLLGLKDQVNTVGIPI

[5] = target: T5, EphA2 SAM domain K945L (human, UniProt P29317 897-976, K945L); assay: ITC
T5 sequence (looked up): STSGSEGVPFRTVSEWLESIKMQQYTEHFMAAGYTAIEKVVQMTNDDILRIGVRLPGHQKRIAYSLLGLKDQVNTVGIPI

[6] = target: T6, EphA2 SAM domain Y960N (human, UniProt P29317 897-976, Y960N); assay: ITC
T6 sequence (looked up): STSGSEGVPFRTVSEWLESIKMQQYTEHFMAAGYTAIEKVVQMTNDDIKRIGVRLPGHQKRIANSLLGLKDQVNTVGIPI

[7] = target: T7, EphA2 SAM domain K945L/Y960N (human, UniProt P29317 897-976, K945L | Y960N); assay: ITC
T7 sequence (looked up): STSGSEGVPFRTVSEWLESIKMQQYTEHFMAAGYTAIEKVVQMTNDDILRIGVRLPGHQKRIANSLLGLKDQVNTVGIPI

[8] = target: T8, EphA2 SAM domain K956D (human, UniProt P29317 897-976, K956D); assay: ITC
T8 sequence (looked up): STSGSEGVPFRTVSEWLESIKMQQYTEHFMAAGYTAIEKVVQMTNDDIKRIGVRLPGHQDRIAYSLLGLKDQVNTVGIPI

[9] = target: T9, EphA2 SAM domain K917D (human, UniProt P29317 897-976, K917D); assay: ITC
T9 sequence (looked up): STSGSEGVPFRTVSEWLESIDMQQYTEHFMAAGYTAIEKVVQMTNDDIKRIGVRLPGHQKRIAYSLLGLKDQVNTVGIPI

[10] = target: T10, EphA2 SAM domain K956E (human, UniProt P29317 897-976, K956E); assay: ITC
T10 sequence (looked up): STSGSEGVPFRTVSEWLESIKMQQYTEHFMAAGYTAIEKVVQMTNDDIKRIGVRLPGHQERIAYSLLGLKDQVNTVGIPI

[11] = target: T1, EphA2 SAM domain (wild type); assay: ITC
[12] = target: EphB2 SAM domain penta-mutant L954K/T959R/A961P/K966R/N969Y (human); assay: ITC
[13] = target: T11, EphA2 SAM domain K917E (human, UniProt P29317 897-976, K917E); assay: ITC
T11 sequence (looked up): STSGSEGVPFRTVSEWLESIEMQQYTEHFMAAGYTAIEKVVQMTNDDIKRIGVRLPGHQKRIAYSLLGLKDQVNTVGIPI

[14] = target: T1, EphA2 SAM domain (wild type); assay: ITC; remark: listed apart in the source
[15] = target: T1, EphA2 SAM domain (wild type); assay: ITC; remark: listed apart in the source
[16] = target: EphA2, full length, R950T, expressed in U87 cells (human, UniProt P29317 24-976, R950T); assay: co-IP

Kd [1]: ~10 µM | fold enhancement of the interaction against the wild-type pair [2]: ~4 fold | Kd [3]: 3.8 ± 0.4 µM | dH [3]: -3.6 kcal/mol | Kd [4]: 1.7 ± 0.3 µM | dH [4]: -2.4 kcal/mol | Kd [5]: 1.3 ± 0.2 µM | dH [5]: -2.1 kcal/mol | Kd [6]: 3.1 ± 0.4 µM | dH [6]: -3 kcal/mol | Kd [7]: 1.6 ± 0.6 µM | dH [7]: -2 kcal/mol | Kd [8]: > 50 µM | Kd [9]: 9.1 ± 5.7 µM | dH [9]: -0.85 kcal/mol | Kd [10]: > 50 µM | Kd [11]: 5.2 ± 1.2 µM | dH [11]: -2.5 kcal/mol | Kd [12]: 7.6 µM
B1: SHIP2 SAM domain (wild type) (domain or fragment, human, UniProt O15357 1192-1258, looked up)
chain: RASGLGEAGMSAWLRAIGLERYEEGLVHNGWDDLEFLSDITEEDLEEAGVQDPAHKRLLLDTLQLSK

Kd [13]: 15.4 ± 1.9 µM | dH [13]: -2 kcal/mol
B2: SHIP2 SAM domain E1226K (domain or fragment, human, UniProt O15357 1192-1258, looked up)
chain: RASGLGEAGMSAWLRAIGLERYEEGLVHNGWDDLKFLSDITEEDLEEAGVQDPAHKRLLLDTLQLSK

Kd [9]: 10 ± 2 µM | dH [9]: -2.5 kcal/mol
B3: SHIP2 SAM domain D1224K (domain or fragment, human, UniProt O15357 1192-1258, looked up)
chain: RASGLGEAGMSAWLRAIGLERYEEGLVHNGWDKLEFLSDITEEDLEEAGVQDPAHKRLLLDTLQLSK

fold enhancement of the interaction against the wild-type pair [14]: ~4 fold
B4: SHIP2 SAM domain H1219S (domain or fragment, human, UniProt O15357 1192-1258, looked up)
chain: RASGLGEAGMSAWLRAIGLERYEEGLVSNGWDDLEFLSDITEEDLEEAGVQDPAHKRLLLDTLQLSK

Kd [4]: 1.3 ± 0.1 µM | dH [4]: -5 kcal/mol
B5: SHIP2 SAM domain H1219R (domain or fragment, human, UniProt O15357 1192-1258, looked up)
chain: RASGLGEAGMSAWLRAIGLERYEEGLVRNGWDDLEFLSDITEEDLEEAGVQDPAHKRLLLDTLQLSK

Kd [8]: 7 ± 3 µM | dH [8]: -0.8 kcal/mol
B6: SHIP2 SAM domain D1235K (domain or fragment, human, UniProt O15357 1192-1258, looked up)
chain: RASGLGEAGMSAWLRAIGLERYEEGLVHNGWDDLEFLSDITEEKLEEAGVQDPAHKRLLLDTLQLSK

Kd [4]: 11.2 ± 2.7 µM | dH [4]: -7.5 kcal/mol | Kd [15]: 4 ± 0.4 µM | dH [15]: -5.5 kcal/mol
B7: SHIP2 SAM domain H1219E (domain or fragment, human, UniProt O15357 1192-1258, looked up)
chain: RASGLGEAGMSAWLRAIGLERYEEGLVENGWDDLEFLSDITEEDLEEAGVQDPAHKRLLLDTLQLSK

fold binding against wild type EphA2 [16]: ~2 fold
B8: SHIP2 (SH2-linked inositol phosphatase 2), endogenous in U87 cells (enzyme, human (endogenous in U87), UniProt O15357 1-1258, looked up)
chain: MASACGAPGPGGALGSQAPSWYHRDLSRAAAEELLARAGRDGSFLVRDSESVAGAFALCVLYQKHVHTYRILPDGEDFLAVQTSQGVPVRRFQTLGELIGLYAQPNQGLVCALLLPVEGEREPDPPDDRDASDGEDEKPPLPPRSGSTSISAPTGPSSPLPAPETPTAPAAESAPNGLSTVSHDYLKGSYGLDLEAVRGGASHLPHLTRTLATSCRRLHSEVDKVLSGLEILSKVFDQQSSPMVTRLLQQQNLPQTGEQELESLVLKLSVLKDFLSGIQKKALKALQDMSSTAPPAPQPSTRKAKTIPVQAFEVKLDVTLGDLTKIGKSQKFTLSVDVEGGRLVLLRRQRDSQEDWTTFTHDRIRQLIKSQRVQNKLGVVFEKEKDRTQRKDFIFVSARKREAFCQLLQLMKNKHSKQDEPDMISVFIGTWNMGSVPPPKNVTSWFTSKGLGKTLDEVTVTIPHDIYVFGTQENSVGDREWLDLLRGGLKELTDLDYRPIAMQSLWNIKVAVLVKPEHENRISHVSTSSVKTGIANTLGNKGAVGVSFMFNGTSFGFVNCHLTSGNEKTARRNQNYLDILRLLSLGDRQLNAFDISLRFTHLFWFGDLNYRLDMDIQEILNYISRKEFEPLLRVDQLNLEREKHKVFLRFSEEEISFPPTYRYERGSRDTYAWHKQKPTGVRTNVPSWCDRILWKSYPETHIICNSYGCTDDIVTSDHSPVFGTFEVGVTSQFISKKGLSKTSDQAYIEFESIEAIVKTASRTKFFIEFYSTCLEEYKKSFENDAQSSDNINFLKVQWSSRQLPTLKPILADIEYLQDQHLLLTVKSMDGYESYGECVVALKSMIGSTAQQFLTFLSHRGEETGNIRGSMKVRVPTERLGTRERLYEWISIDKDEAGAKSKAPSVSRGSQEPRSGSRKPAFTEASCPLSRLFEEPEKPPPTGRPPAPPRAAPREEPLTPRLKPEGAPEPEGVAAPPPKNSFNNPAYYVLEGVPHQLLPPEPPSPARAPVPSATKNKVAITVPAPQLGHHRHPRVGEGSSSDEESGGTLPPPDFPPPPLPDSAIFLPPSLDPLPGPVVRGRGGAEARGPPPPKAHPRPPLPPGPSPASTFLGEVASGDDRSCSVLQMAKTLSEVDYAPAGPARSALLPGPLELQPPRGLPSDYGRPLSFPPPRIRESIQEDLAEEAPCLQGGRASGLGEAGMSAWLRAIGLERYEEGLVHNGWDDLEFLSDITEEDLEEAGVQDPAHKRLLLDTLQLSK
